Paper PMC4549865, “The Escherichia coli NarL receiver domain regulates transcription through promoter specific functions” (BMC Microbiology, 2015)

Biological target: the molecule itself
Test: AUC; sedimentation equilibrium, 4 °C, Beckman Optima XL-A, absorption optics; samples at 60 μM and 160 μM in 25 mM Tris pH 7.5-8.5, 500 mM NaCl (other salts in some runs); 11,000-22,000 rpm; single-species fits and global fits of monomer-dimer and other models; monomer to dimer

Row | Protein | stoichiometry N
1 | NarL N-terminal domain plus linker region (NarL^N, residues 2-141), unphosphorylated (domain or fragment, Escherichia coli, UniProt P0AF28 2-141, looked up, NarL, nitrate response regulator of Escherichia coli; residues 2-141 (in-frame beginning at Ser2, stop codon introduced at Leu142); receiver domain and linker helix alpha6; The pQE9 construction puts a Gly in the place of Met1, before Ser2; also called NarL^(N (2–141)); NarL RD; source: E. coli JM109 (pQE9 derivative pMJ99), purified (Ni-NTA resin or HiTrap chelating column)) SNQEPATILLIDDHPMLRTGVKQLISMAPDITVVGEASNGEQGIELAESLDPDLILLDLNMPGMNGLETLDKLREKSLSGRIVVFSVSNHEEDVVTALKRGADGYLLKDMEPEDLLKALHQAAAGEMVLSEALTPVLAAS | 2
2 | Phosphorylated NarL receiver domain with portion of the linker (NarL^N-P, residues 2-141) (domain or fragment, Escherichia coli, UniProt P0AF28 2-141, looked up, phosphorylated with acetyl phosphate; the site of phosphorylation is Asp59, NarL, nitrate response regulator of Escherichia coli; residues 2-141 (in-frame beginning at Ser2, stop codon introduced at Leu142); receiver domain and linker helix alpha6; The pQE9 construction puts a Gly in the place of Met1, before Ser2; also called phosphorylated NarL^N; phosphorylated RD) SNQEPATILLIDDHPMLRTGVKQLISMAPDITVVGEASNGEQGIELAESLDPDLILLDLNMPGMNGLETLDKLREKSLSGRIVVFSVSNHEEDVVTALKRGADGYLLKDMEPEDLLKALHQAAAGEMVLSEALTPVLAAS | 2
